According to paper PMC7831708:

Biological target: recombinant human PD-1 (human) (UniProt Q15116)
Test: ELISA

UniProt Q15116, sequence (Q15116 25-170): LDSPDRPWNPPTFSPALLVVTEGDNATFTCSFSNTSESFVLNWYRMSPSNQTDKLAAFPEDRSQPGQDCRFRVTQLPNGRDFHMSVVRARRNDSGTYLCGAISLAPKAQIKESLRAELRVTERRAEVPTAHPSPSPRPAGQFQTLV

Substance: Recombinant cynomolgus monkey PD-L1.mFc (Fc fusion)
- EC50: 2.88 nM
